Data published in the supplement of paper PMC12783771.
± gives the standard deviation of the averaged measurements.

B1: library; a variant is named by its letters at X, in order (parent)
chain: MNIQIGELAKRTACPVVTIRFYEQEGLLPPPGRSRGNFRLYGEEHVERLQFIRHCRSLDMPLSDVRTLLSYRKRPDQDCGEVXMLLDEHIRQVESRIGALLELKHHLVELREACSGARPAQSCGILQXLSXCVCXTRGTTAHXSD

Legend:
[1] = variants of: B1; assay: sfGFP reporter fluorescence (15 h) (µM FITC); higher = higher leak; details: library round: Round 2; ligand: none
Experimental: (§1)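 Cell-free biosensing: 1 µL Echo-assembled CFE reactions with linear PbrR variant templates (5 nM) and pPbrR-sfGFP reporter, with 1 µM Pb, 30 µM Zn or no ligand; endpoint sfGFP fluorescence after 15 h at 30 °C calibrated as µM FITC. Round 2 ML-predicted PbrR mutants; up to 3 biological replicates.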

[2] = variants of: B1; assay: sfGFP reporter fluorescence (15 h) (µM FITC); higher = stronger transcriptional activation; details: library round: Round 2
Experimental: as §1

Variant | sfGFP reporter fluorescence [1] | sfGFP reporter fluorescence ([2]; ligand: 1 µM Pb) | sfGFP reporter fluorescence ([2]; ligand: 30 µM Zn)
TGDAP E109L | 0.043 ± 0.0023 | 0.0797 ± 0.0069 | 0.366 ± 0.035
TGCDA | 0.0468 ± 0.0016 | 0.0758 ± 0.0041 | 0.0857 ± 0.0083
TGCDL | 0.045 ± 0.00089 | 0.0743 ± 0.011 | 0.0958 ± 0.0017
TGCDI | 0.0463 ± 0.0019 | 0.0711 ± 0.0029 | 0.0916 ± 0.0046
TGCDT | 0.0478 ± 0.0007 | 0.0731 ± 0.0033 | 0.0847 ± 0.0041
TGDDP D64E V108N | 0.0416 ± 0.00051 | 0.0357 ± 0.0033 | 0.0616 ± 0.0048
NGADW L126I | 0.0633 ± 0.0051 | 0.0592 ± 0.0043 | 0.317 ± 0.024
NADAP K104R | 0.123 ± 0.0024 | 0.419 ± 0.072 | 2.34 ± 0.033
NGCDP D64K E112H | 0.108 ± 0.012 | 0.402 ± 0.043 | 1.44 ± 0.16
NGDDP P61E L62I D64K | 0.125 ± 0.015 | 0.249 ± 0.094 | 1.34 ± 0.17
NADPP V108L L129M | 0.0617 ± 0.0065 | 0.0681 ± 0.0059 | 0.734 ± 0.067
SGDDP I90L V108N | 0.0447 ± 0.0012 | 0.04614 ± 0.00039 | 0.0897 ± 0.013
TGAAP | 0.0444 ± 0.0012 | 0.0747 ± 0.0046 | 0.359 ± 0.0081
NGCDP V108I S115G | 0.0507 ± 0.0021 | 0.0573 ± 0.0016 | 0.115 ± 0.0092
TGAYC | 0.05432 ± 0.00051 | 0.085 ± 0.0051 | 0.699 ± 0.064
SGDDP I90L D145A | 0.0442 ± 0.0022 | 0.046 ± 0.001 | 0.122 ± 0.0052
NGDDP P61N D64K K104M L107C | 0.791 ± 0.061 | 1.74 ± 0.2 | 2.52 ± 0.35
TGDAL V108L | 0.0451 ± 0.0016 | 0.073 ± 0.0021 | 0.281 ± 0.0062
NGADP V133P C134V | 0.0817 ± 0.0086 | 0.0967 ± 0.019 | 2.1 ± 0.36
NEDAT | 0.0492 ± 0.001 | 0.0597 ± 0.0011 | 0.594 ± 0.053
TGDDP I97A K104G | 0.0644 ± 0.0063 | 0.155 ± 0.025 | 0.412 ± 0.04
TGCDT L129I | 0.0433 ± 0.0032 | 0.0464 | 0.0525 ± 0.0028
TGDDA E25V | 0.0619 ± 0.0073 | 0.072 ± 0.0079 | 0.252 ± 0.031

Variant | sfGFP reporter fluorescence [1] | sfGFP reporter fluorescence ([2]; ligand: 1 µM Pb) | sfGFP reporter fluorescence ([2]; ligand: 30 µM Zn)
NGADT C134V | 0.103 ± 0.013 | 0.155 ± 0.03 | 2.64 ± 0.21
TGDDP D64T R111L | 0.0779 ± 0.0063 | 0.151 ± 0.011 | 1.9 ± 0.12
TGDDP D64T R111A | 0.09 ± 0.012 | 0.212 ± 0.024 | 2.38 ± 0.096
TGDDL T139A | 0.0436 ± 0.001 | 0.0619 ± 0.0082 | 0.241 ± 0.015
NGCDA L107C | 0.757 ± 0.089 | 1.68 ± 0.17 | 3.37 ± 0.31
TGCAP Q121A | 0.0482 ± 0.0011 | 0.0978 ± 0.0067 | 0.156 ± 0.0046
NGDAY L110V | 0.0649 ± 0.005 | 0.0584 ± 0.0031 | 0.445 ± 0.032
NGADL L129V | 0.0491 ± 0.0012 | 0.0459 ± 0.00051 | 0.0502 ± 0.0022
TGDAA E112I | 0.04637 ± 0.00034 | 0.0525 ± 0.0024 | 0.108 ± 0.0066
NGDDP M60F P61N D64K K104V | 0.395 ± 0.16 | 0.744 ± 0.16 | 2.04 ± 0.33
NGDDP M60L D64K E81A | 1.03 ± 0.075 | 2.19 ± 0.059 | 3.74 ± 0.22
NGDAM Q121A | 0.0666 ± 0.0079 | 0.106 ± 0.0059 | 1.36 ± 0.13
NGAPY | 0.0801 ± 0.0048 | 0.159 ± 0.0087 | 1.13 ± 0.12
NGAPL | 0.0797 ± 0.0073 | 0.16 ± 0.0081 | 1.22 ± 0.26
TGADP V108L | 0.0451 ± 0.00078 | 0.0942 ± 0.0052 | 0.321 ± 0.0054
NGADP M60L D64K | 1.59 ± 0.28 | 2.6 ± 0.28 | 3.98 ± 0.16
NGAAS | 0.0633 ± 0.001 | 0.107 ± 0.011 | 1.08 ± 0.1
TGDDP E109D E112K | 0.0468 ± 0.0013 | 0.0781 ± 0.0022 | 0.418 ± 0.034
TGAPL | 0.0604 ± 0.0053 | 0.109 ± 0.013 | 0.301 ± 0.034
TGAPW | 0.0521 ± 0.00089 | 0.146 ± 0.014 | 0.264 ± 0.014
NGDAR E112I | 0.0495 ± 0.0017 | 0.054 ± 0.002 | 0.35 ± 0.016
NGDDP D64K V108E R111L | 0.0746 ± 0.0031 | 0.165 ± 0.012 | 1.8 ± 0.29
NGAKP L107V | 0.173 ± 0.011 | 0.513 ± 0.055 | 3.38 ± 0.24

Variant | sfGFP reporter fluorescence [1] | sfGFP reporter fluorescence ([2]; ligand: 1 µM Pb) | sfGFP reporter fluorescence ([2]; ligand: 30 µM Zn)
NGCDR K104R | 0.047 ± 0.0037 | 0.0672 ± 0.0019 | 0.0986 ± 0.0051
NGCAP S130A | 0.0466 ± 0.011 | 0.0819 ± 0.0045 | 0.429 ± 0.066
NGDDP | 0.0488 ± 0.0061 | 0.0602 ± 0.0046 | 0.684 ± 0.074
NGDDP M60L D64S L107C | 3.21 ± 0.37 | 2.96 ± 0.13 | 3.58 ± 0.77
TGCAT | 0.0488 ± 0.002 | 0.0664 ± 0.0029 | 0.09 ± 0.0056
TGCAP | 0.0461 ± 0.0022 | 0.0657 ± 0.0026 | 0.0869 ± 0.005
NGAAP L107C | 1.86 ± 0.29 | 2.29 ± 0.21 | 3.05 ± 0.55
SGDAY | 0.0491 ± 0.0015 | 0.0749 ± 0.0032 | 0.399 ± 0.039
SGDAA | 0.0628 ± 0.0043 | 0.0745 ± 0.0027 | 0.449 ± 0.062
NGADP M60L P61N D64K | 0.804 ± 0.17 | 1.38 ± 0.2 | 2.82 ± 0.43
NADDP P61N D64K K104V | 0.917 ± 0.079 | 1.61 ± 0.16 | 3.1 ± 0.27
NGDAT L85I | 0.0427 ± 0.0024 | 0.0595 ± 0.0027 | 0.809 ± 0.019
NGDAL L110I | 0.0605 ± 0.0082 | 0.0575 ± 0.0038 | 0.953 ± 0.064
NGDAP M60L D64K | 1.45 ± 1.3 | 1.27 ± 0.82 | 3.35 ± 0.63
NGDDP D87E S95A K104V R111A | 0.0648 ± 0.0053 | 0.0918 ± 0.0068 | 0.74 ± 0.092
NGDDP M60L P61N D64K K104V L107C | 0.716 ± 0.071 | 2.14 ± 0.18 | 3.11 ± 0.31
NGDAP P61D D64K L107C | 2.53 ± 0.22 | 1.89 ± 0.26 | 2.38 ± 0.23
NGDDP P61N D64K V108M | 0.154 ± 0.014 | 0.461 ± 0.026 | 2.33 ± 0.24
NGDAP D64T Q127G | 0.0728 ± 0.0058 | 0.121 ± 0.013 | 1.87 ± 0.15
NGCDP M60L P61N D64K K104V | 0.179 ± 0.016 | 0.384 ± 0.049 | 1.39 ± 0.088
NGDDM I90L I125L | 0.0615 ± 0.0043 | 0.0526 ± 0.0027 | 0.0576 ± 0.0035
SGDDP L85Y K104V | 0.0628 ± 0.0056 | 0.0671 ± 0.0055 | 0.248 ± 0.027
NGDAP E109D G124A | 0.0638 ± 0.0036 | 0.0745 ± 0.0045 | 0.474 ± 0.07

Variant | sfGFP reporter fluorescence [1] | sfGFP reporter fluorescence ([2]; ligand: 1 µM Pb) | sfGFP reporter fluorescence ([2]; ligand: 30 µM Zn)
NGADY L107C | 1.36 ± 0.23 | 2.4 ± 0.18 | 3.25 ± 0.18
NGDAP S130A T136A | 0.0512 ± 0.001 | 0.0834 ± 0.0067 | 1.11 ± 0.13
MGAAP | 0.0477 ± 0.0018 | 0.0933 ± 0.0042 | 0.0535 ± 0.0035
NGDAP P61N V108E | 0.0745 ± 0.0048 | 0.129 ± 0.01 | 1.48 ± 0.14
NGDDP D64K K104V R111A | 0.0829 ± 0.0096 | 0.354 ± 0.017 | 2.2 ± 0.44
NGDDP M60L P61N D64N | 0.291 ± 0.025 | 0.582 ± 0.11 | 2.53 ± 0.24
NGCAY | 0.0505 ± 0.0017 | 0.0635 ± 0.0058 | 0.277 ± 0.0034
NGCAL | 0.0515 ± 0.0016 | 0.0668 ± 0.0024 | 0.255 ± 0.022
NGDAP L129I H142A | 0.0458 ± 0.0024 | 0.0491 ± 0.0012 | 0.302 ± 0.012
NGCDP I125V L129M | 0.0493 ± 0.0017 | 0.0435 ± 0.0022 | 0.0493 ± 0.003
NGAAF E112D | 0.0594 ± 0.0017 | 0.0886 ± 0.0049 | 0.82 ± 0.062
NGDDP P61E D64K E112H | 0.157 ± 0.027 | 0.377 ± 0.021 | 1.95 ± 0.22
NGCDP P61N H106A | 0.0622 ± 0.0038 | 0.166 ± 0.0088 | 0.457 ± 0.079
TGDDP L107I E112A | 0.0475 ± 0.0007 | 0.131 ± 0.0047 | 0.511 ± 0.039
NGDAP P61N D64T E112I | 0.11 ± 0.014 | 0.308 ± 0.03 | 1.7 ± 0.2
SADAP | 0.0791 ± 0.013 | 0.19 ± 0.019 | 2.33 ± 0.44
NGADY V133A | 0.0753 ± 0.0056 | 0.124 ± 0.0081 | 1.15 ± 0.1
NGDAL P61N | 0.0792 ± 0.0022 | 0.235 ± 0.018 | 1.57 ± 0.074
TGDDM V108L | 0.0605 ± 0.0032 | 0.0645 ± 0.0026 | 0.209 ± 0.025
TGDDP K104R E112F | 0.0494 ± 0.00089 | 0.0553 ± 0.0034 | 0.111 ± 0.0062
